Measurements: the DeepSol protein solubility set

Assay: soluble on expression in E. coli; label from the status in PepcDB or PDB records

Soluble on expression in E. coli, not soluble:
MTTAFFVAADWLAEHIDDPEIQILDARMAPPGQEHRDMAGEYRAGHIPGALFFDIEALSDRASPLPHMMPRPEAFAVAMRELGVRQDKHLVIYDEGNLFSAPRAWWMLRTFGAEKVSILAGGLAGWQRDEWLLREGEEAHEGGEFEAKFAPQAVVRLTDVLLASHEKTAQIVDARPAARFNAQADEPRPGLRRGHIPGALNVPWTELVYEGELKTTDELNEVFFSHGVSFDRPIIASCGSGVTAAVVVLALATLDVPDVTLYDGAWSEWGARTDLPVEPA
MFIGGAIISFLFLFGYMWKEAHSNRIRHVTLSFPHFPDNGPPLTIFFISDIHRRSVSCRMLETVKGKADLVVIGGDLAEKGVPAARVRENVRRLQTVAPVYFVWGNNDDEVDYDLQSLLEEERVYVLKNKAEVWEHGGVPIALIGVGDVSRKEADIARALEHVPPESFRILACHNPAIIARLEDEQHISLVLSGHTHGGQIRLFSFGLYEKGGLKWHGNTALFTSNGYGTTGVPLRLGAPAETHLIKIVPGKLATEKKCLSKTGKTMLEHHHHHH
MGSDKIHHHHHHYEKIYDVNHVCYYTLTSVELQKFVKTAEIITPLNADNKTTITKDTILVGNPEENPLTKKYIGFFKIKINKTFPGKNKGIIEKQIINGHTVILLAGSDIQGTYASIITFANLNDIPENPIICETSNKVNIYSTSLNSEYFRDFIEKNILTPKEIEKVKSLSYKLKGKDKKATIENIAKWVANNIKYDYDKCKKIESGKFSWDEYNTPSETVKTKKGVCLDYATLTSALLLNDNIIPYMLDVALYNTSSLKISSYHASVAVKIDNTYFVIDQQPYLIPINEYTAQTFEDNLRIASIVMFRVVKERDGIKLIKEKEVPGIAIYGDLINLLEMRFNN
MSLDVPLAQTVVWETHVGDFSNDPAGGFPESHRGKYLAFTDDGTSLEGHPDFPTGLAYLKKLGVTAVQLMPIYDFGSVDETTCDRYNWGYDPINYNVPEGSYSTNPFDGTTRIREVKQMVQALHSAGIKVIMDVVYNHMFSTDNWFERTVPKYFLRRKPNGALANGSGCGCDMATERKMFRRFIVESVTFWAREYHMDGFRFDLMGLIDVDTMNAVRAALNEIPGRGRDILMYGEPWSAGASAPLPADTLLAGKQGLAQLDDRIGHFCDTTRDTIKGHVFYSDRPGYVNGGMHANAVAVREAVDAWRHSDRPEGVAGQVIQYVSAHDDLTLWDKLCASLAASSLGSAVAEGDEENTVDVPKTLHDADFSEQGLDAVGPEMAQALHDVLGANRLSAGIVLTSAGIPFMLSGEEFARTKYGNSDSYDSTKELNWLDWNRAWHMRDLIGFYAKLIALRKSDARWFDGNRKIVDTEGDELVFRVGDYLVAVNPSDRTGVVDVAAAAVEGDSGEMHRYWCCLGVSGRGGGVSTGGGDDDYLIMPAHTFAIWRLQEGHHHHHH
MGHHHHHHSHMDADSASQRLVISAPDSQVRFSNIRTNDVAKTPQMHGTEMANSPQPPPLSPHPCDVVDEGVTKTPSTPQSQHFYQMPTPDPLVPSKPMEDRIDSLSQSFPPQYQEAVEPTVYVGTAVNLEEDEANIAWKYYKFPKKKDVEFLPPQLPSDKFKDDPVGPFGQESVTSVTEYVFFLIVTIII
KAAPEDVRMIMIDPKMLELSIYEGIPHLLAPVVTDMKLAANALNWCVNEMEKRYRLMSFMGVRNLAGFNQKIAEAAARGEKIGNPFSLTPDDPEPLEKLPFIVVVVDEFADLMMTAGKKIEELIARLAQKARAAGIHLILATQRPSVDVITGLIKANIPTRIAFQVSSKIDSRTILDQMGAENLLGQGDMLFLLPGTAYPQRVHGAFASDEEVHRVVEYLKQFGEPDYVDDILSGGGSEELPGIGRSGDDETDPMYDEAVSVVLKTRKASISGVQRALRIGYNRAARLIDQMEAEGIVSAPEHNGNRTILVPLDNA
MGSDKIHHHHHHMKNNNPPALGQKENAKHGEVFFPVQKYITRLAADYPVITTHWHDEAELTLITKGSCTYQIDLLEYEAKEGDIIFIPPLLLHSISIRDCDEFYSETYVFHINFLGGNNTDICSSRYLTPLINHEFAMPYLIAPKHPAYSSLCKCFMRITNLYSRQEFAYELALKAFLLQAIFLLLQYSEKNADFGVNTSSDKLKNVLDYIDVHYAESIQVAELAGLCYFSEYHFMRFFKKHMNMTCVQYINNVRLEKSVEQFERGNTSILDVSLSVGFHNLSYFHRAFKKRYHMTPLSFIKSLE
MGSDKIHHHHHHMKSNTTMSKTERLFHLLQILRRYRYPLSGQFLANELGVSTRTIYRDIAALQAQGADIEGEPGLGYVLKPGFMLPPLMFNEEEIEALVLGSRWVAKKTDTHLQQAAHNALAKIASVLPADLRQQLELSSLLIGPGEVISGEDESLALVRKAIRKELKLFIQYHDLKGNVSTRTIWPIGLGYFDQVRVLIAWCELKKDFRHFRADRIVDVENLGVCYAKRRSVLLHDWRKQNNIPG
GPGSMSLASPSSLPPIALATQRLRTFAAQEEQAHGLTTSTALEEWATQSFEAETERINRELVQRRSQASVTFLPALYMRGRDPAADETTRLLHSTCKAFELDLRFKEIEKLDEMHAHLWTLLSAGDRTSISMEAYEQLLHDFNEWAAEHYGAQLLPPPSTVWDVSEDEDECILCRREVKEDDHEKSGGGNSSPSMSPLRPPVSLARPLSASTPPVLAATKAAPNDAPFTSGTRGASWDAVLQHVKRYRDQQRSDTSASASSFMRSHAHFEHLLRLAEDQPALGNVLYLCSVPPPRPDVQLFLSCPRNAERAVEIAAIYQTFAKQVSLVKCEAELIMWDSNNDGRLSEDEVENYVRDLAPRIAALQAMSKDMLPFYCCTVSRRLFWDLDPGNRGVLRIHSLLHSGIMDEWVSLQLMTEDDTQNWFGALVTQQLYNKFVLLDTRNTGTLNVENLRGYKKGLPTVLDDGLPPDVSPLCSLFIDRYFETNTLMTRSEMDYRKFVDFVIAVELLPQCSRPYFFWNILDMEGTGVLTPMIVNQFFRETHAKLVAAGLDVPSRETVVQEVFDLIEKAESLLITRDEFVRSPQAGLFVALLIDCLSFWTYENREQR
MKAEGLSGGYGDSRLINNVSLTVEKGEFLGILGPNGSGKTTLLHLLTGTLPAKKGRVYLAGKLLADYKPKELAQIMAVLPQKMDQAFTFTVEETVAFGRYPFQTGLFRQQTEKGEAIVQEAMEQTGVADFAQKPIRELSGGEQQRVYLAQALAQQPRILFLDEPTNFLDLAYQKDLLDLIKRLTRESGLAAVSVFHDLNTASLYCDGLMFMKNGTAGPKQKPEYAVTEQSIKAVYDTDVTALVHQSSPKPMIVIQPEKDSVKRQSIPFEALLQAGRDDILLQTEIPLRTLSSTPIGAGFSWSRTLIHKRLPDQPDPIEGLTACLSESGFQLQETCAMASSERLDRFVYRTYEDGELSVFICVQTGFSIWILINGYAADQFFIKALMAAEAERTKVLGDGGGTGDILIAATQTQQSENIEQRLNQLIKKGTAECIKEAAELF
MNKFKLGSDFDHLVNSLSDVELLNLFIQSCSQTTINGVPVPRFPPEEIQKQFVGASYEHALYEAYLFYRHIKEYAQNLGVPLNKESKVLDFGCGWGRIIRFLFKDASDQNLLGIDVDPAMITLCNETLGRGIYKTASPHPPVEFISDNSLDIIFAYSVFSHLSEATAENWVKEFSRVLRPGGIFIATTQARYFLDFCQQFQEHPELIQTGWHKTLSQAFPDIHRAISDYENGKFVHSPTGAGDVRNSSFYGETVIPRTYIENHYEKYLKLQDFFDDVNRLPQALFVLQKILEHHHHHH
MYIRINNGVTECNIRLVGTAHVSDDSITEVKNAIVETDPELVAIELDKDRFVAMFQNKKNDVDLKSVIKQGKVGIYIVHSILANFQKNIGEQFGIKPGSEMKKATDLAIQYQKPISLIDRPINITLSRTVNKMTFKEKFDFVIGLLTEQNVELDEKAINEMVSNADDLILLLKDISPSIYETLVNERDKYMAKNLFEASKGKENIVAVVGAGHVPGIKNYLKKMESGEDIDLKSLM
MKIIARNKKALFDYSIIERFEAGIVLKGSEVVALRAGRANLKDSFVRIIKNEIFLLNSHISLLHTTHSFYKHEERGARKLLMHRKQIDKLLGKVSIEGYTIVALDLYFNTKNKVKATLALAKGKNLHDKRETLKKKQADLEARAAMKNYK

Soluble on expression in E. coli, soluble:
MSKTTLVERCYKYIMSNEKNWSPYTVINRKSWVKNYIEPFFKDTKLIDINPVLIQTFINTTFNNCTFSSSKIRYRFISSVLKEAYRLREINENPCDFVKLPLEHHHHHH
MSDQLQMTDGMHIIVEALKQNNIDTIYGVVGIPVTDMARHAQAEGIRYIGFRHEQSAGYAAAASGFLTQKPGICLTVSAPGFLNGLTALANATVNGFPMIMISGSSDRAIVDLQQGDYEELDQMNAAKPYAKAAFRVNQPQDLGIALARAIRVSVSGRPGGVYLDLPANVLAATMEKDEALTTIVKVENPSPALLPCPKSVTSAISLLAKAERPLIILGKGAAYSQADEQLREFIESAQIPFLPMSMAKGILEDTHPLSAAAARSFALANADVVMLVGARLNWLLAHGKKGWAADTQFIQLDIEPQEIDSNRPIAVPVVGDIASSMQGMLAELKQNTFTTPLVWRDILNIHKQQNAQKMHEKLSTDTQPLNYFNALSAVRDVLRENQDIYLVNEGANTLDNARNIIDMYKPRRRLDCGTWGVMGIGMGYAIGASVTSGSPVVAIEGDSAFGFSGMEIETICRYNLPVTIVIFNNGGIYRGDGVDLSGAGAPSPTDLLHHARYDKLMDAFRGVGYNVTTTDELRHALTTGIQSRKPTIINVVIDPAAGTESGHITKLNPKQVAGN
MSIITRLFNNSDFEKLNQLCKLYDDLGYPTNENDLKKRLKKITNHDDYFLLLLIKENKIIGLSGMCKMMFYEKNAEYMRILAFVIHSEFRKKGYGKRLLADSEEFSKRLNCKAITLNSGNRNERLSAHKLYSDNGYVSNTSGFTKQL
MSLAQIDSLFVTRLYRAALSEHGPKIDPQEMEASCIAIAEDDEAGQDWCEENGYPGYTSYASLTDLPWRFPIFADLVKSLDAHVAAFAQDLELNLDGRDLKLEDLWINILPEGGTHASHIHPHSVISGTTYVSMPDGASALKLEDPRHAMMMAHPPRTKDCRRELRSFVYEAPNVGDVLLWESFIRHEVPMNMAEDERISVSFNYAWAEGHHHHHH
MNIDAVVEFTKKHLKDEKTGHDFYHGQRVANLASKMYLEDHPDAHADSRMVAIIKSGGYLHDTIDEKVCDNPDKVIAEIKELLPEVGFTDLEVWDILFTIQHMSFSANIEHHYHLPLSGQYVQDADRLESLGAMGIARAFTYGGKHGNKIYDPEIKPEKLVSHDQYRNHVETTINHFYEKLFHLADTMNTPAMKKEANRRTEYMHNFVQEFMNEWNVLEHHHHHH
ARVDQTPQTITKETGESLTINCVLRDSNCALSSTYWYRKKSGSTNEESISKGGRYVETVNSGSKSFSLRINDLTVEDSGTYRCKPESRYGSYDAECAALNDQYGGGTVVTVNAAAHHHHHH
MSSSIPRVYSLGNSAMTYLLALRIAQLPSQPKVPSVVLLLNDQKKLNRFLNNDSKIIVKSSNNNKETYHRQFMASCVPPILSNGEIAPIENLIVSDPSSKFITAQLSKYNKSLRPETNILFLNPSLNLLEHLHRYRWRFDEARPNLFMGFTTPVDVGTIHQEFQLSLKVKGRIQFHIAKIDGFPRMSSTGKSASLSLRGDRQKNEKENNAFYKLFREISRLRSGIGSDLVSFDLHVHGFQDLFFTELEKLILESCTEPLLAVYDCVYKKELLKIPGAQDIIKKLISEQLSIIDRSYPSLNTNPNYSVIFDKERIFSLVMRDLEVNGHKRAKLAQSLNQLNQTNINELNGFFVSLGKYKKCNCKWNDILLTLIKGKQFITKQKALDYHYL
